This passage reports Km and kcat/Km results from article PMC10707464.

The subject of one data set is CCCCSC1CCC(=O)O1. Description: purified protein. The following applies: pH 8.0; 25.0 °C.
Data set [1] relates to CCCCCCCCCC(=O)CC(=O)N[C@H]1CCOC1=O. Description: purified protein. The note with it: 25.0 °C.

What is called Km is the concentration of substrate that gives half-maximal velocity. The term kcat/Km denotes the turnover number divided by the Michaelis constant. On to SsoPox (Saccharolobus solfataricus P2), for which, in the data set with CCCCSC1CCC(=O)O1, the Km amounted to 0.08 ± 0.003 mM and the specificity constant (kcat/Km) was determined as 360000 ± 10000 M⁻¹ s⁻¹.

As to “SacPox (Sulfolobus acidocaldarius DSM 639)”, the kcat/Km in data set [1] came out at 1.62e+07 ± 2.2e+06 M⁻¹ s⁻¹. In the data set with CCCCSC1CCC(=O)O1, the Km is recorded as 0.024 ± 0.0005 mM and the catalytic efficiency (kcat/Km) came out at 1.86e+06 ± 70000 M⁻¹ s⁻¹.
